Test in all cases: BLI; Octet RED96; client biotinylated and loaded on streptavidin sensors; Spy or Spy variant in solution at 0.25, 0.5, 1, 1.5 and 2 μM; 40 mM HEPES, 150 mM NaCl, pH 7.5; Kd calculated as koff/kon
What all share (conditions): both partners purified

The target in one assay is T1, Spy_(27-130) (UniProt P77754 50-153).
T1 construct: Spy chaperone, residues 27-130; source: E. coli BL21 (DE3), purified (Ni-NTA, cation exchange, SEC); not shown: His6, N-terminal, cleaved; SUMO, N-terminal, cleaved
T1 sequence (looked up): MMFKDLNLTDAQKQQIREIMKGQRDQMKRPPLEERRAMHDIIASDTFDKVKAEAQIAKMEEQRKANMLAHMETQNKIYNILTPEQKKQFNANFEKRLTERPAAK
The procedure, abridged:
(§1)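 Client proteins were biotinylated with EZ-link NHS-biotin at a 1:1 molar ratio, loaded onto streptavidin sensors, and measured by biolayer interferometry on an Octet RED96. The loaded sensors were dipped into 40 mM HEPES, 150 mM NaCl, pH 7.5 holding the analyte protein at 0.25, 0.5, 1, 1.5 or 2 μM, then moved to buffer without it. Fitting the wavelength-shift association and dissociation curves in SigmaPlot 12.0 gave the observed association rate and koff, kon was taken from the observed rate plotted against analyte concentration, and Kd was calculated as koff/kon.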

A further assay addresses T2, Spy_(1-124) (UniProt P77754 24-147).
T2 construct: source: E. coli BL21 (DE3), purified (Ni-NTA, cation exchange, SEC); not shown: His6, N-terminal, cleaved; SUMO, N-terminal, cleaved
T2 sequence (looked up): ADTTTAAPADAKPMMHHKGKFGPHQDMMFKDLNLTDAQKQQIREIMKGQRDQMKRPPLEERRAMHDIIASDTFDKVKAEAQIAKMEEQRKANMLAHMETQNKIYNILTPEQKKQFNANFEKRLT
The procedure, abridged:
as §1

The target in another assay is T3, Spy_(24-127) (UniProt P77754 47-150).
T3 construct: Spy chaperone, residues 24-127; source: E. coli BL21 (DE3), purified (Ni-NTA, cation exchange, SEC); not shown: His6, N-terminal, cleaved; SUMO, N-terminal, cleaved
T3 sequence (looked up): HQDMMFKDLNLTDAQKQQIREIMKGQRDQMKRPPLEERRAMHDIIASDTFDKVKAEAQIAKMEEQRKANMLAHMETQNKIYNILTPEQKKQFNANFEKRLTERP
The procedure, abridged:
as §1

In the next assay the target is T4, Spy_(27-124) (UniProt P77754 50-147).
T4 construct: source: E. coli BL21 (DE3), purified (Ni-NTA, cation exchange, SEC); not shown: His6, N-terminal, cleaved; SUMO, N-terminal, cleaved
T4 sequence (looked up): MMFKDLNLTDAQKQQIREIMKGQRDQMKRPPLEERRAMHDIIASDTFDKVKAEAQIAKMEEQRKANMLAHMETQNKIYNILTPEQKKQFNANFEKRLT
The procedure, abridged: as §1

The target in another assay is T5, Spy_(24-130) (UniProt P77754 47-153).
T5 construct: Spy chaperone, residues 24-130; source: E. coli BL21 (DE3), purified (Ni-NTA, cation exchange, SEC); not shown: His6, N-terminal, cleaved; SUMO, N-terminal, cleaved
T5 sequence (looked up): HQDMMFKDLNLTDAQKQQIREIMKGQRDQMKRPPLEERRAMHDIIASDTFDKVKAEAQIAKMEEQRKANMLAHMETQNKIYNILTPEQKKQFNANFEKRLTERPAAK
The procedure, abridged:
as §1

The next assay deals with T6, Spy_(29-138) (UniProt P77754 52-161).
T6 construct: source: E. coli BL21 (DE3), purified (Ni-NTA, cation exchange, SEC); not shown: His6, N-terminal, cleaved; SUMO, N-terminal, cleaved
T6 sequence (looked up): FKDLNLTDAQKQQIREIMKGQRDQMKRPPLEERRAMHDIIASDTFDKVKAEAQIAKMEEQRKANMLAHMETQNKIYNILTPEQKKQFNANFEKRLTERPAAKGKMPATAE
The procedure, abridged:
as §1

In another assay the target is T7, Spy_(24-124) (UniProt P77754 47-147).
T7 construct: source: E. coli BL21 (DE3), purified (Ni-NTA, cation exchange, SEC); not shown: His6, N-terminal, cleaved; SUMO, N-terminal, cleaved
T7 sequence (looked up): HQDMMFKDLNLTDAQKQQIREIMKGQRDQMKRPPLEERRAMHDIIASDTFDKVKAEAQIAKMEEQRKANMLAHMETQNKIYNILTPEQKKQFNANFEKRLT
The procedure, abridged:
as §1

Another assay deals with T8, Spy_(21-124) (UniProt P77754 44-147).
T8 construct: source: E. coli BL21 (DE3), purified (Ni-NTA, cation exchange, SEC); not shown: His6, N-terminal, cleaved; SUMO, N-terminal, cleaved
T8 sequence (looked up): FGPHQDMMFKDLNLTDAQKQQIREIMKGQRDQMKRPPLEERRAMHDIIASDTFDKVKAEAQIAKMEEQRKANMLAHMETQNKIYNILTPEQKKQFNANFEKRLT
The procedure, abridged: as §1

Among the data in publication PMC9122904, “Insights into the client protein release mechanism of the ATP-independent chaperone Spy” (Nature Communications, 2022) are kon values, retold here.

B1: Im7 H40W L53A I54A (natural protein)
chain: MELKNSISDYTEAEFVQLLKEIEKENVAATDDVLDVLLEWFVKITEHPDGTDAAYYPSDNRDDSPEGIVKEIKEWRAANGKPGFKQG
modifications: biotin (EZ-link NHS-biotin, 1:1 molar ratio of biotin to protein)
notes: Im7 (colicin E7 immunity protein) with H40W L53A I54A; Spy was made with an N-terminal His6-SUMO tag that was cleaved; also called Im7AAW; partially folded client; source: purified by a similar procedure to Spy
A word on the kon: it is the rate constant with which the complex forms. For the molecule B1, the kon with Spy_(27-130) is 313000 M⁻¹ s⁻¹; in the assay with Spy_(1-124), 203000 M⁻¹ s⁻¹; with Spy_(24-127), 227000 M⁻¹ s⁻¹; in the assay with Spy_(27-124), 314000 M⁻¹ s⁻¹; with Spy_(24-130) it was 210000 M⁻¹ s⁻¹; with Spy_(29-138), 286000 M⁻¹ s⁻¹. In addition, the kon with Spy_(24-124) is 258000 M⁻¹ s⁻¹; in the assay with Spy_(21-124) it was 267000 M⁻¹ s⁻¹.
